The text below walks through data of the supplement of paper PMC12042874.

± gives the uncertainty stated by the source.

A short description of the data set: amyloid nucleation score (Sup35N fusion, yeast selection) (log enrichment); library NNK3; higher = more nucleation; inactive = no reads after selection. The gist of the method: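 In psi-negative yeast, Sup35N fusions carrying peptides of 20 random codons were induced with 100 μM copper sulfate for 24 hours. The cells then grew 7 days at 30°C on medium lacking adenine and uracil, and plasmid inserts from input and output were Illumina-sequenced, excluding sequences with under 100 input reads. Nucleation score is the DiMSum log enrichment of output over input reads, centred on the mode score of non-aggregating sequences.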
For SRRFFRWLSYTFGDGRGWLL, the amyloid nucleation score result is “inactive”. Take SRRSLNGIN: the amyloid nucleation score was -0.05 ± 0.3. The same measure for SRRSSS: 1.28 ± 0.11; for SRSSCRVIPT: “inactive”; for SRSVDLLSLSRYIYLESRYD: “inactive”.

With SRSVTESLCLYT, the amyloid nucleation score result was “inactive”. For SRTAKSFDATWMITFYGWGP, the amyloid nucleation score result is “inactive”.

SRTGVC yielded an amyloid nucleation score of -0.227 ± 1.5. The same measure for SRVLTYDT: “inactive”; for SRWATGWTTIISYMEPWFRA: “inactive”; for SRYHLDFRYYSINKSLMSGV: “inactive”. SSASYVHCDFYIFGGLAPSN showed an amyloid nucleation score of 2.8 ± 0.063. The result for SSCTLVKAGLVNFLRARYSG reads “inactive”; that for SSDFTSWDVREILGRAVVLC, “inactive”; that for SSDILASFGCYSNFHLSHII, “inactive”. The result for SSDRLYFINGRMRNRFARFC reads “inactive”; that for SSDSIKTWWKNTNVICVSGG, “inactive”; that for SSDSVNLIRYLYVRPRFPIH, “inactive”.

For the substance SSECSMALIL, the amyloid nucleation score result was “inactive”. The result for SSFDSAIEA reads “inactive”; that for SSFGTQLYWNMSKCRFTRGT, 1.16 ± 0.16; that for SSFLFVKLLIMNRLVQKIYA, “inactive”. On to SSGWNFPCSPSVMPDVVGVG, for which the amyloid nucleation score result was “inactive”. Take SSHLVWCYDANNHWADHK: the amyloid nucleation score result is “inactive”.

Turning to SSKHC, the amyloid nucleation score entry was “inactive”. The result for SSLITFAPIPSLYWDCFSRF reads “inactive”; that for SSLKWYTHPAMCYAHTWSIT, “inactive”; that for SSMICVQFGM, “inactive”. On to SSMLI, for which the amyloid nucleation score entry was “inactive”. The same measure for SSNDDFWIKGGQCEYIRFRL: “inactive”; for SSPDCNYNECVPGACERRGF: “inactive”; for SSQVET: “inactive”.

As for SSSKNACDPC, the amyloid nucleation score entry was “inactive”. The result for SSSNTRFVGAERCVGSWCGS reads “inactive”; that for SSSVTVYRFKGSTSSLGTNY, “inactive”. The same measure for SSVMFVRIVLRIGGYHLAAR: “inactive”; for SSVTCLLSSLRCIPRGVVFM: “inactive”.

For the substance SSVVGMSGLG, the amyloid nucleation score result is “inactive”. The result for SSVYCL reads -0.781 ± 1.3; that for SSWDGLKRL, “inactive”; that for SSWPICMPASQNLLLNIGLG, “inactive”. The result for SSYYFFCDGLIFELLSQDNS reads “inactive”; that for STHGWGGWLSVYIGNP, “inactive”; that for STIAGPFLKFARSGTCPPVP, -0.776 ± 1.8.

For STLQRDIICKCIHAKVTVWV, the amyloid nucleation score entry was “inactive”. The result for STRILRLHITSMLDFRTTGA reads “inactive”; that for STSSLASNYRDFSIR, “inactive”. The result for STTIGF reads “inactive”; that for STTMAFAAIVFEIYSVTSWF, “inactive”.

For STWRASIVPSFMVRGCWSIK, the amyloid nucleation score result was “inactive”. For STWTWMPHKERHITLSKEFW, the amyloid nucleation score result was “inactive”. The same measure for STYAPWSMHHFLDLYMSNRS: “inactive”; for SVESACFTSSWVNHFFTFSN: “inactive”; for SVESQGLWGCCILSKR: 2.7 ± 0.06. As for SVFRSMSTSILVFSPVHYCE, the amyloid nucleation score result is “inactive”. SVGGEWRS came in with an amyloid nucleation score of 1.34 ± 0.14.

Take SVGVWKYFDLWAAGFLSSSG: the amyloid nucleation score entry was “inactive”. On to SVIASRSLIYD, for which the amyloid nucleation score entry is “inactive”. Regarding SVLFLTRIEEVGVRYMFKDC, the amyloid nucleation score entry was “inactive”.

With SVLLHLNRNVMWTMPSRGAF, the amyloid nucleation score entry was “inactive”. Consider SVMSLDVVMVVRYFY, for which the amyloid nucleation score amounted to 0.999 ± 0.12. The result for SVNFSYASAIPHAQMIQVRV reads “inactive”; that for SVNLFVLMYLFII, 1.9 ± 0.061; that for SVQFFPDCCQGELTTNTVRS, “inactive”. With SVRTSAYYKFQRTERVSMCM, the amyloid nucleation score result was “inactive”.

With SVSHAE, the amyloid nucleation score result is “inactive”. Turning to SVTLRLVFRCP, the amyloid nucleation score is 1.05 ± 0.15. Consider SVYDNYSLGNRYWERTFWLS, for which the amyloid nucleation score entry is “inactive”. The same measure for SVYGIYGSNYMNTFVVVLVG: “inactive”; for SVYYTPCAFFRLIEGNLEGL: “inactive”.

In the case of SWCWYMCSGLNIEIAKGLTR, the amyloid nucleation score result was “inactive”. The same measure for SWDFAYLYELIYFRFMFQGC: “inactive”; for SWFPP: “inactive”; for SWFVHKFSIRYNLFDFSYIF: “inactive”. For SWKARDYRGSVLGSIIRDFN, the amyloid nucleation score entry is “inactive”.

For SWQNWGRGGCSGLFVSRWVT, the amyloid nucleation score result is “inactive”. The same measure for SWRDILVKRHS: “inactive”. The same measure for SWRRWSPCLIEVWHMFSLVT: “inactive”; for SWVHGERLMHDCQTLLLYSW: “inactive”; for SWVNDRQNFPASLLYRDYLL: “inactive”. Consider SWYAKGFI, for which the amyloid nucleation score result is “inactive”. The result for SWYGQLLCVTVVRYHCAPCG reads “inactive”.

In turn, SYCDSNRGVDLV returned an amyloid nucleation score of -0.611 ± 0.75. The result for SYDGWCVTYFDV reads “inactive”; that for SYDMTLHG, 0.436 ± 0.18.

On to SYFGDYLKIYFFYTQHNLSC, for which the amyloid nucleation score entry was “inactive”. With SYFGRLIQSLTRQWTTVARS, the amyloid nucleation score entry is “inactive”. Substance SYFTMTDSSFSVAFANLLVY yielded an amyloid nucleation score of 0.289 ± 0.78. For the substance SYFWILRAWS, the amyloid nucleation score result was “inactive”.

On to SYGALLNGYGGKSSAPIRWS, for which the amyloid nucleation score result was “inactive”. The result for SYGDPCQAKGQIRIVYGWHW reads 0.308 ± 0.25; that for SYGPRPYTHHSPHAAGMTLE, “inactive”. The same measure for SYHYHATILSWTYYVTVYFL: “inactive”; for SYLPEFRCVVRFKFFQDKLL: “inactive”; for SYLRQDDVEMAVIWTGHMSV: “inactive”. The result for SYMQAWVTNCMSVFSVVMKQ reads “inactive”; that for SYMVSLRIVLFFDYR, “inactive”. For the substance SYNFRDCYQCLRDKVDKICA, the amyloid nucleation score entry is “inactive”. The same measure for SYNFVNQYVWKEDRNTKVAI: “inactive”; for SYPGQLRSPVSV: “inactive”.

Take SYRHCNWDAKKVAIGTVVWD: the amyloid nucleation score result was “inactive”. The same measure for SYSISDDLVTNHVPQNST: “inactive”; for SYSSGSSNNKS: “inactive”; for SYTIVERAIRWYPPT: 0.966 ± 0.11. For SYTKDVV, the amyloid nucleation score entry was “inactive”. The result for SYVICGLYIFGCIFRSFTLP reads “inactive”. The result for SYWLCEVMTLYFFNCFYVLG reads “inactive”. The result for TASCEYFELQPIKNLH reads “inactive”; that for TAVLH, “inactive”.

In the case of TCAVKMVRSWCNIPINSFQA, the amyloid nucleation score entry was “inactive”. The result for TCCYRYYLLILAVSGVFIDT reads “inactive”; that for TCFLRRFYWRYSGFYATAHY, “inactive”; that for TCFSYLIFSCGFHSY, 0.404 ± 0.64.

In turn, TCHLILRVFGSYNMHGS showed an amyloid nucleation score of -0.024 ± 0.96. The result for TCLNGLVESRLAGFYHLRGP reads “inactive”; that for TCLVGHDKKIDFIV, “inactive”; that for TCLVSNYVAYIWGNEFFAAS, 2.19 ± 0.053.

With TCMYLRDHR, the amyloid nucleation score is -0.337 ± 0.98.

On to TCQILRYIRSLLRMLIWCYY, for which the amyloid nucleation score is -0.418 ± 0.8. The result for TCSISIRAGLVLNPCWSDYA reads “inactive”; that for TCSSACFVENRDTNHNGHGG, “inactive”; that for TCSSINTLLKYMFLSISLFR, “inactive”. The result for TCVLLCDVFFHGLVLDLKLV reads “inactive”. As for TCVMPGVSQLRFGYWVWICR, the amyloid nucleation score entry is “inactive”. The same measure for TCVNLIMKIECFLYYGFLCP: “inactive”; for TCWLVFSSFPINKLVLRNKT: “inactive”; for TDMIQYKHRLYTIILSNYAR: “inactive”. The same measure for TDRLGCSFELCAPTCKCAGV: “inactive”; for TDVISRMMRGGQVLCMCKQC: “inactive”. As for TEDGPYTIWH, the amyloid nucleation score result was “inactive”. For the substance TEGAYRSW, the amyloid nucleation score result was “inactive”.
